Substitutions are numbered along the chain they refer to.
T1: human C230-A TG2 mutant (oxidation resistant mutant of TG2) (human, UniProt P21980 1-687, C230A)
T1 construct: transglutaminase 2, human, with C230A; source: E. coli BL21(DE3pLysS), purified to homogeneity
T1 sequence (looked up): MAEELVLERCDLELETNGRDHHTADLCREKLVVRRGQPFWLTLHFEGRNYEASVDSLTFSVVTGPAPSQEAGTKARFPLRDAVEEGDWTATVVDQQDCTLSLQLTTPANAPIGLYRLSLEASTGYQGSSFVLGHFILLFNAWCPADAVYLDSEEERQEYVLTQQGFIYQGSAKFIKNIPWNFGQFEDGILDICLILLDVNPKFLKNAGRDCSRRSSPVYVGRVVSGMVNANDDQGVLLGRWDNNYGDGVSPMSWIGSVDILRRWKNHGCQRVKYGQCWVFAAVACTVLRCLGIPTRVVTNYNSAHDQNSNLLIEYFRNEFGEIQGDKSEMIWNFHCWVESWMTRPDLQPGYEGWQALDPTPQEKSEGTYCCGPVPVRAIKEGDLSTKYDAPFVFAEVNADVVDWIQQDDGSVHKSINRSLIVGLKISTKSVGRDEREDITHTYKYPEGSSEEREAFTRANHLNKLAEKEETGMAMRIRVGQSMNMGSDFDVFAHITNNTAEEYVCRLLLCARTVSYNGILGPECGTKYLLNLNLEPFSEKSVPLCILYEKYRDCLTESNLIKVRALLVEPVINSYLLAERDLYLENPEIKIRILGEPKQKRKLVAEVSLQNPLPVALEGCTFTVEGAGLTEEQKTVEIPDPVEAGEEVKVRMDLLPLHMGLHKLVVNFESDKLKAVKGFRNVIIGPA

T2: human recombinant transglutaminase 2 (TG2), wild type (human, UniProt P21980 1-687)
T2 construct: transglutaminase 2, human; also called native TG2; wild type TG2; source: E. coli BL21(DE3pLysS), purified to homogeneity
T2 sequence (looked up): T1 sequence (looked up) with A230C

T3: wild type murine TG2 (murine, UniProt P21981 1-686)
T3 construct: transglutaminase 2, mouse, wild type; construct not described
T3 sequence (looked up): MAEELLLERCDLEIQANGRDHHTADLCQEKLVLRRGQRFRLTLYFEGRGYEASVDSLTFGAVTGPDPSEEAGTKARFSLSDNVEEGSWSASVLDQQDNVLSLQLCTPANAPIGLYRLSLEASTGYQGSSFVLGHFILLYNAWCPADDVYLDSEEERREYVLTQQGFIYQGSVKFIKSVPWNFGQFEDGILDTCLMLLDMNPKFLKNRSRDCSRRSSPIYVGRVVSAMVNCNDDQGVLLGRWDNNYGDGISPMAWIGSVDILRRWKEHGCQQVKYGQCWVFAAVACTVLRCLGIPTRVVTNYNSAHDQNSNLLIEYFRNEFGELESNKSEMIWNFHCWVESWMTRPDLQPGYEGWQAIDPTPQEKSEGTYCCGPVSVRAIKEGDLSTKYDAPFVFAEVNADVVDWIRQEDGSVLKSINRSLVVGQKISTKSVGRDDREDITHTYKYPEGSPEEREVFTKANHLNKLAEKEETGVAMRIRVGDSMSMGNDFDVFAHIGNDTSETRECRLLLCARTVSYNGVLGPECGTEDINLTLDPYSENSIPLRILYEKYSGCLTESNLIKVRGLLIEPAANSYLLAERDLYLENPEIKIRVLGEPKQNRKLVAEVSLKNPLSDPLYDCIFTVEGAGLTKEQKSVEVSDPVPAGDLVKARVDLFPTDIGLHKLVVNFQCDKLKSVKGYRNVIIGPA

T4: C277S-TG2 (catalytically deficient TG2 C277S mutant) (human, UniProt P21980 1-687, C277S)
T4 construct: transglutaminase 2 with C277S; the results call the analyte of the kinetic studies human TG2; Incubated with 10 mM DTT for 10 min and re-buffered into HBS before SPR; source: E. coli BL21(DE3pLysS), purified to homogeneity
T4 sequence (looked up): T1 sequence (looked up) with A230C, C277S

B1: 1-382 N-GPR56-Fc fusion protein (Fc fusion, human, UniProt Q9Y653 26-382, looked up)
chain: RGHREDFRFCSQRNQTHRSSLHYKPTPDLRISIENSEEALTVHAPFPAAHPASRSFPDPRGLYHFCLYWNRHAGRLHLLYGKRDFLLSDKASSLLCFQHQEESLAQGPPLLATSVTSWWSPQNISLPSAASFTFSFHSPPHTAAHNASVDMCELKRDLQLLSQFLKHPQKASRRPSAAPASQQLQSLESKLTSVRFMGDMVSFEEDRINATVWKLQPTAGLQDLHIHSRQEEEQSEIMEYSVLLPRTLFQRTKGRSGEAEKRLLLVDFSSQALFQDKNSSQVLGEKVLGIVVQNTKVANLTEPVVLTFQHQLQPKNVTLQCVFWVEDPTLSSPGHWSSAGCETVRRETQTSCFCNHL
notes: signal peptide in the construct; Fc retains the cysteine residues for dimerization; The limits 1-382 are printed for the SPR; also called human N-GPR56; source: CHO cells, transfected; conditioned medium, purified on protein G-Sepharose, or conditioned medium used directly; not shown: Fc (human IgG1 heavy chain, amino acids 3-236), C-terminal, kept

Key:
GPR56 (Mus musculus) = GPR56 (Mus musculus) (UniProt Q8K209); conditions: cited from earlier work
Chain of GPR56 (Mus musculus) (Q8K209 26-382): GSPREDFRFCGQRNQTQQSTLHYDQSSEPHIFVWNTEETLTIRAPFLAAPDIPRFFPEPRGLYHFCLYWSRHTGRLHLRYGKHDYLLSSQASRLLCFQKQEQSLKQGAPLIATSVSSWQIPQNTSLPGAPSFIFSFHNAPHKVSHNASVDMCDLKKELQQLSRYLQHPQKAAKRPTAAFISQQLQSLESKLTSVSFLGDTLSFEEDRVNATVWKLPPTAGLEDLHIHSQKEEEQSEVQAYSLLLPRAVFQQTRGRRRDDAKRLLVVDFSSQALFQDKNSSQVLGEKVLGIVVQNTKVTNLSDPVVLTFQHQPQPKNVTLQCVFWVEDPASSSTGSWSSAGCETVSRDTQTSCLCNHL

[1] = target: T1, human C230-A TG2 mutant (oxidation …); assay: pull-down; N-GPR56-Fc fusion proteins from CHO conditioned medium held on protein G-Sepharose beads, washed (20 mM Tris/HCl, pH 7.4, 150 mM NaCl), incubated with TG2 (50 µg/mL) in 50 µL overnight at 4 °C; eluted with 0.1 M glycine/HCl pH 2.5; Western blot; conditions: both partners purified
[2] = target: T2, human recombinant transglutaminase 2 …; assay: as above; conditions: both partners purified
wild type murine TG2 = target: T3, wild type murine TG2; assay: as above; conditions: both partners purified
[3] = target: T4, C277S-TG2 (catalytically deficient TG2 …); assay: SPR; BIAcore T200, protein A sensor chip; 270-320 RU of 1-382 N-GPR56-Fc fusion protein, or conditioned medium containing it (1:10 in HBS), captured; C277S-TG2 (DTT treated) as analyte, 8 serial dilutions; 25 °C, HBS (10 mM Hepes pH 7.4, 0.15 M NaCl, 3 mM EDTA, 0.005% P20), 30 µL/min; with 20 mM Ca2+; equilibrium analysis; conditions: both partners purified

| Molecule | Kd (GPR56 (Mus musculus)) [nM] | binding result [1] | binding result [2] | binding result (wild type murine TG2) | Kd [3] [nM] |
| --- | --- | --- | --- | --- | --- |
| TG2 (from UniProt P21981) | 330 | – | – | – | – |
| B1 | – | binds | binds | binds | ~1200 |

Reference: article PMC10889368, “Mesenchymal Transglutaminase 2 Activates Epithelial ADAM17: Link to G-Protein-Coupled Receptor 56 (ADGRG1) Signalling” (International Journal of Molecular Sciences, 2024)
